Reference: patent US20240270846A1 (published 2024)
Positions count from the first letter of the chain named. Names may count otherwise. Values belong to the binder of their own block, whether it stands above or below them.

Key:
[1] = molecular target: T1, CD3 epsilon homodimer protein (UniProt P07766 23-126); experiment: SPR, CD3e homodimer on chip;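 note: surface plasmon resonance at 25 degrees C, antibodies flowed as analyte over CD3 epsilon homodimer amine-coupled to a CM4 chip, running buffer HBS-EP+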
T1 construct: also called CD3 (CD3 epsilon)
T1 sequence (P07766 23-126): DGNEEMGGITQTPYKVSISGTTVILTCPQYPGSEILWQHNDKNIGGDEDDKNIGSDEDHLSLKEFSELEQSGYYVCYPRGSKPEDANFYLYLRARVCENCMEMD

[2] = molecular target: T2, CD3 epsilon homodimer protein (UniProt P07766 23-126); experiment: SPR (Biacore T200), CD3e homodimer on CM4 chip, antibody as analyte; KD ratio vs unaltered GLS3000;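 note: CD3 epsilon homodimer amine-coupled to the sensor surface, antibodies injected as analyte at 25 °C with HBS-EP+ running buffer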
T2 construct: also called CD3 (CD3 epsilon)
T2 sequence (P07766 23-126): as above
Description: An appropriate amount of CD3 epsilon homodimer protein was immobilized onto Sensor chip CM4 (GE Healthcare Japan Corp.) by the amine coupling method. Then, the antibody having an appropriate concentration was injected thereto as an analyte and allowed to interact with the CD3 epsilon homodimer protein on the sensor chip. Then, the sensor chip was regenerated by the injection of 10 mmol/L glycine-HCl (pH 1.5). The assay was conducted at 25 degrees C., and HBS-EP+(GE Healthcare Japan Corp.) was used as a running buffer. […] Each parameter was calculated using Biacore T200 Evaluation Software (GE Healthcare Japan Corp.).
Specifically, when the amount of the GLS3000-containing antibody bound was defined as X and the amount of the L chain one-amino acid altered form bound was defined as Y, a value of Z (ratio of amounts bound)=Y/X was used.

B1: GLS3000 H27dA one-arm antibody (H chain CE115HA000) (antibody, human IgG1, kappa, L234A L235A, N297A, name in Kabat numbering)
heavy: QVQLVESGGGVVQPGRSLRLSCAASGFTFSNAWMHWVRQAPGKGLEWVAQIKAKSNNYATYYAESVKGRFTISRDDSKNSLYLQMNSLKTEDTAVYYCRYVHYGAYYGVDAWGQGTTVTVSSASTKGPSVFPLAPSSKSTSGGTAALGCLVKDYFPEPVTVSWNSGALTSGVHTFPAVLQSSGLYSLSSVVTVPSSSLGTQTYICNVNHKPSNTKVDKKVEPKSCDKTHTCPPCPAPEAAGGPSVFLFPPKPKDTLMISRTPEVTCVVVDVSHEDPEVKFNWYVDGVEVHNAKTKPREEQYASTYRVVSVLTVLHQDWLNGKEYKCKVSNKALPAPIEKTISKAKGQPREPQVYTLPPSRCELTKNQVSLSCAVKGFYPSDIAVEWESNGQPENNYKTTPPVLDSDGSFFLVSKLTVDKSRWQQGNVFSCSVMHEALHNHYTQKSLSLSPDYKDDDDK
chain: EPKSSDKTHTCPPCPAPELLGGPSVFLFPPKPKDTLMISRTPEVTCVVVDVSHEDPEVKFNWYVDGVEVHNAKTKPREEQYNSTYRVVSVLTVLHQDWLNGKEYKCKVSNKALPAPIEKTISKAKGQPREPQVCTLPPSRDELTKNQVSLWCLVKGFYPSDIAVEWESNGQPENNYKTTPPVLDSDGSFFLYSKLTVDKSRWQQGNVFSCSVMHEALHNRYTQKSLSLSP
light: DIVMTQSPLSLPVTPGEPASISCRSSQSLVASNRNTYLHWYQQKPGQAPRLLIYKVSNRFSGVPDRFSGSGSGTDFTLKISRVEAEDVGVYYCGQGTQVPYTFGQGTKLEIKRTVAAPSVFIFPPSDEQLKSGTASVVCLLNNFYPREAKVQWKVDNALQSGNSQESVTEQDSKDSTYSLSSTLTLSKADYEKHKVYACEVTHQGLSSPVTKSFNRGEC
notes: one-arm antibody
- ratio of amounts bound (altered form / unaltered GLS3000 antibody) [1]: 0.48

B2: CE115HA000/GLS3000 Y96L one-arm antibody (antibody, human IgG1, kappa, L234A L235A, N297A, name in Kabat numbering)
heavy: B1 heavy
chain: B1 chain
light: B1 light with A31H, Y101L
notes: one-arm IgG1
- KD ratio to GLS3000 [2]: 1.84 ratio

B3: CE115HA000/GLS3000 Y96H one-arm antibody (antibody, human IgG1, kappa, L234A L235A, N297A, name in Kabat numbering)
heavy: B1 heavy
chain: B1 chain
light: B1 light with A31H, Y101H
notes: one-arm IgG1
- KD ratio to GLS3000 [2]: 80.3 ratio

B6: CE115HA000/GLS3000 Y96E one-arm antibody (antibody, human IgG1, kappa, L234A L235A, N297A, name in Kabat numbering)
heavy: B1 heavy
chain: B1 chain
light: B1 light with A31H, Y101E
notes: one-arm IgG1
- KD ratio to GLS3000 [2]: 46.8 ratio

B8: CE115HA000/GLS3000 Y96F one-arm antibody (antibody, human IgG1, kappa, L234A L235A, N297A, name in Kabat numbering)
heavy: B1 heavy
chain: B1 chain
light: B1 light with A31H, Y101F
notes: one-arm IgG1
- KD ratio to GLS3000 [2]: 0.86 ratio

B12: CE115HA000/GLS3000 Y32F one-arm antibody (antibody, human IgG1, kappa, L234A L235A, N297A, name in Kabat numbering)
heavy: B1 heavy
chain: B1 chain
light: B1 light with A31H, Y37F
notes: one-arm IgG1
- KD ratio to GLS3000 [2]: 4.51 ratio

B13: CE115HA000/GLS3000 V94L one-arm antibody (antibody, human IgG1, kappa, L234A L235A, N297A, name in Kabat numbering)
heavy: B1 heavy
chain: B1 chain
light: B1 light with A31H, V99L
notes: one-arm IgG1
- KD ratio to GLS3000 [2]: 3.06 ratio

B15: CE115HA000/GLS3000 Y32D one-arm antibody (antibody, human IgG1, kappa, L234A L235A, N297A, name in Kabat numbering)
heavy: B1 heavy
chain: B1 chain
light: B1 light with A31H, Y37D
notes: one-arm IgG1
- KD ratio to GLS3000 [2]: 25.9 ratio

B17: CE115HA000/GLS3000 V94M one-arm antibody (antibody, human IgG1, kappa, L234A L235A, N297A, name in Kabat numbering)
heavy: B1 heavy
chain: B1 chain
light: B1 light with A31H, V99M
notes: one-arm IgG1
- KD ratio to GLS3000 [2]: 2.74 ratio

B18: CE115HA000/GLS3000 Y96D one-arm antibody (antibody, human IgG1, kappa, L234A L235A, N297A, name in Kabat numbering)
heavy: B1 heavy
chain: B1 chain
light: B1 light with A31H, Y101D
notes: one-arm IgG1
- KD ratio to GLS3000 [2]: 40.9 ratio

B20: CE115HA000/GLS3000 Y32P one-arm antibody (antibody, human IgG1, kappa, L234A L235A, N297A, name in Kabat numbering)
heavy: B1 heavy
chain: B1 chain
light: B1 light with A31H, Y37P
notes: one-arm IgG1
- KD ratio to GLS3000 [2]: 62 ratio

B22: CE115HA000/GLS3000 V94N one-arm antibody (antibody, human IgG1, kappa, L234A L235A, N297A, name in Kabat numbering)
heavy: B1 heavy
chain: B1 chain
light: B1 light with A31H, V99N
notes: one-arm IgG1
- KD ratio to GLS3000 [2]: 0.96 ratio

Further lines, results first:

- ratio of amounts bound (altered form / unaltered GLS3000 antibody) [1]: 0.3
B4: GLS3000 H27dL one-arm antibody (H chain CE115HA000) (antibody, human IgG1, kappa, L234A L235A, N297A, name in Kabat numbering)
heavy: B1 heavy
chain: B1 chain
light: B1 light with A31L
notes: one-arm antibody

- ratio of amounts bound (altered form / unaltered GLS3000 antibody) [1]: 0.26
B5: GLS3000 H27dI one-arm antibody (H chain CE115HA000) (antibody, human IgG1, kappa, L234A L235A, N297A, name in Kabat numbering)
heavy: B1 heavy
chain: B1 chain
light: B1 light with A31I
notes: one-arm antibody

- ratio of amounts bound (altered form / unaltered GLS3000 antibody) [1]: 0.3
B7: GLS3000 H27dN one-arm antibody (H chain CE115HA000) (antibody, human IgG1, kappa, L234A L235A, N297A, name in Kabat numbering)
heavy: B1 heavy
chain: B1 chain
light: B1 light with A31N
notes: one-arm antibody

- ratio of amounts bound (altered form / unaltered GLS3000 antibody) [1]: 0.3
B9: GLS3000 H27dG one-arm antibody (H chain CE115HA000) (antibody, human IgG1, kappa, L234A L235A, N297A, name in Kabat numbering)
heavy: B1 heavy
chain: B1 chain
light: B1 light with A31G
notes: one-arm antibody

- ratio of amounts bound (altered form / unaltered GLS3000 antibody) [1]: 1.13
B10: GLS3000 F55A one-arm antibody (H chain CE115HA000) (antibody, human IgG1, kappa, L234A L235A, N297A, name in Kabat numbering)
heavy: B1 heavy
chain: B1 chain
light: B1 light with A31H, F60A
notes: one-arm antibody

- ratio of amounts bound (altered form / unaltered GLS3000 antibody) [1]: 0.22
B11: GLS3000 H27dD one-arm antibody (H chain CE115HA000) (antibody, human IgG1, kappa, L234A L235A, N297A, name in Kabat numbering)
heavy: B1 heavy
chain: B1 chain
light: B1 light with A31D
notes: one-arm antibody

- ratio of amounts bound (altered form / unaltered GLS3000 antibody) [1]: 0.63
B14: GLS3000 H27dF one-arm antibody (H chain CE115HA000) (antibody, human IgG1, kappa, L234A L235A, N297A, name in Kabat numbering)
heavy: B1 heavy
chain: B1 chain
light: B1 light with A31F
notes: one-arm antibody

- ratio of amounts bound (altered form / unaltered GLS3000 antibody) [1]: 0.3
B16: GLS3000 H27dM one-arm antibody (H chain CE115HA000) (antibody, human IgG1, kappa, L234A L235A, N297A, name in Kabat numbering)
heavy: B1 heavy
chain: B1 chain
light: B1 light with A31M
notes: one-arm antibody

- ratio of amounts bound (altered form / unaltered GLS3000 antibody) [1]: 0.65
B19: GLS3000 F55D one-arm antibody (H chain CE115HA000) (antibody, human IgG1, kappa, L234A L235A, N297A, name in Kabat numbering)
heavy: B1 heavy
chain: B1 chain
light: B1 light with A31H, F60D
notes: one-arm antibody

- ratio of amounts bound (altered form / unaltered GLS3000 antibody) [1]: 0.23
B21: GLS3000 H27dE one-arm antibody (H chain CE115HA000) (antibody, human IgG1, kappa, L234A L235A, N297A, name in Kabat numbering)
heavy: B1 heavy
chain: B1 chain
light: B1 light with A31E
notes: one-arm antibody

- ratio of amounts bound (altered form / unaltered GLS3000 antibody) [1]: 0.29
B23: GLS3000 H27dK one-arm antibody (H chain CE115HA000) (antibody, human IgG1, kappa, L234A L235A, N297A, name in Kabat numbering)
heavy: B1 heavy
chain: B1 chain
light: B1 light with A31K
notes: one-arm antibody
